Assays:
hGHR-hFc = target: T1, hGHR-hFc (Homo sapiens, UniProt P10912); test: Biacore kinetics and affinity, immobilized hGHR-hFc, Fab analyte, 37° C.; type: binding; details: hGHR-hFc captured on anti-human Fc surface
T1 construct: purchased R&D Systems 1210-GR
Protocol: (§1) The affinity of GHR antibody SS1 Fab to human and cyno GHR was measured on a Biacore™ T200 biosensor (GE Lifesciences™, Piscataway N.J.).
(§2) An anti-human Fc sensor chip was prepared by activating all flow cells of a Biacore™ CM4 sensor chip with a 1:1 (v/v) mixture of 400 mM EDC and 100 mM NHS for 7 minutes, at a flow rate of 10 μL/min. An anti-human Fc reagent (goat F(ab′)2 fragment to human IgG Fc, Cappel Catalog #55053) was diluted to 60 μg/mL in 10 mM sodium acetate pH 5.0 and injected on all flow cells for 7 minutes at 20 μL/min. All flow cells were blocked with 100 mM ethylenediamine in 150 mM borate buffer pH 8.5 for 7 minutes at 10 μL/min.
The kinetics assay was run using a methodology with varying dissociation times as described in Katsamba et al., supra. The hGHR-hFc fusion protein (R&D Systems™ Catalog#1210-GR) was captured onto downstream flow cells at 2 μg/mL at a flow rate of 10 μL/min for 30 seconds, 1 minute and 2 minutes on flow cells 2, 3 and 4, respectively. Flow cell 1 was used as a reference surface. […] After the analyte injection, dissociation was monitored for 30 minutes (400 nM Fab cycle) or 60 seconds (all other cycles) followed by regeneration with two 30-second injections of 75 mM phosphoric acid. A 5-membered dilution series of Fab was analyzed using this method, where the top concentration was 400 nM and the dilution factor was 3-fold. […]

human GHR = target: T2, human GHR (Homo sapiens, UniProt P10912); test: Biacore kinetics and affinity, immobilized Fab, human GHR analyte, 37° C.; type: binding; details: Fab captured on anti-human kappa surface
T2 construct: his-tagged monomers of amino acids 31-235 of the extracellular domain of the human or cyno GHR
T2 sequence (P10912 49-253): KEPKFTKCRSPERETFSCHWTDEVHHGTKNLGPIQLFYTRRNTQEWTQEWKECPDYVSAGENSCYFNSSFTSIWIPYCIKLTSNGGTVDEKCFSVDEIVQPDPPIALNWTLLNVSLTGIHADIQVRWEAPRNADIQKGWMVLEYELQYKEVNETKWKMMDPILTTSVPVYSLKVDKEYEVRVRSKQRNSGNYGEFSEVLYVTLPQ
Protocol: as §1
as §2, with “kappa” for “Fc”, “anti-human kappa, Southern Biotech” for “to human IgG Fc, Cappel”, “#2063-01)” for “#55053)”, “50” for “60”, “4.5” for “5.0”
(§3) The kinetics assay was run using a methodology with varying dissociation times as described in Katsamba et al., supra. Fabs were captured onto downstream flow cells (flow cells 2, 3 and 4) at 2 μg/mL at a flow rate of 10 μL/min for 2 minutes. Different Fabs were captured on each flow cell. Flow cell 1 was used as a reference surface. […] After the analyte injection, dissociation was monitored for 30 minutes (for the 133 nM and 400 nM GHR cycles) or 60 seconds (all other cycles) followed by regeneration with three 30-second injections of 10 mM glycine pH 1.7. A 6-membered dilution series of GHR was analyzed using this method, where the top concentration was 400 nM and the dilution factor was 3-fold. […]

cyno GHR = test: Biacore kinetics and affinity, immobilized Fab, cyno GHR analyte, 37° C.; type: binding, cynomolgus monkey; details: Fab captured on anti-human kappa surface
Chain of cyno GHR (as listed by the source): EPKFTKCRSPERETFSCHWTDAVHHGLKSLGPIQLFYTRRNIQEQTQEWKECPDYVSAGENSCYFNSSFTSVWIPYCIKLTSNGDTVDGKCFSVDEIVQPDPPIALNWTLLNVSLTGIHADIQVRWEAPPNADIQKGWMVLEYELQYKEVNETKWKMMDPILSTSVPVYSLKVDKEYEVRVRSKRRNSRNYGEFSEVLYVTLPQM
Protocol: as §1
as §2, with “kappa” for “Fc”, “anti-human kappa, Southern Biotech” for “to human IgG Fc, Cappel”, “#2063-01)” for “#55053)”, “50” for “60”, “4.5” for “5.0”
as §3

T1 sequence (P10912 with tags, fused parts or gaps limits assumed): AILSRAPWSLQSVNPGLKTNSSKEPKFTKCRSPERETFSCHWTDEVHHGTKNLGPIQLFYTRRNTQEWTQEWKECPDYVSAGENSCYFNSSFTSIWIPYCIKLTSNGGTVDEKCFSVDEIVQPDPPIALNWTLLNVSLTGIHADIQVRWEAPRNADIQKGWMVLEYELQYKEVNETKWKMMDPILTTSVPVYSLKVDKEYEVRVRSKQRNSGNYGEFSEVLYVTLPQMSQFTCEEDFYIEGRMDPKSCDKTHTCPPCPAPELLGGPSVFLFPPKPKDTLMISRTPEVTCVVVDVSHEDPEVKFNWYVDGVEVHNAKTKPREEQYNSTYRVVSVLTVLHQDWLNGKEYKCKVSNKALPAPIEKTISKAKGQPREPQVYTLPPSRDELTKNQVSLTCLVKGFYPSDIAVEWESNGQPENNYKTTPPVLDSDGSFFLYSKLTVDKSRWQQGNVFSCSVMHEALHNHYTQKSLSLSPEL

ka (hGHR-hFc): 374000 M⁻¹ s⁻¹ | kd (hGHR-hFc): 0.000359 s⁻¹ | ka (human GHR): 138000 M⁻¹ s⁻¹ | kd (human GHR): 0.000215 s⁻¹ | kd (cyno GHR): 0.000576 s⁻¹
B1: SS1 Fab: Fab of GHR antibody SS1 (antibody, V domains shown)
VH: EVQLVESGGGLVKPGGSLRLSCAASGFTFSDAWMDWVRQAPGKGLEWVAEIRSKANYHATYYAESVKGRFTISRDDSKNTLYLQMNSLKTEDTAVYYCTLIRDYWGQGTLVTVSS
VL: EIVLTQSPGTLSLSPGERATLSCTATSSVSSSYLNWYQQKPGQAPRLLIYSTSNLASGIPDRFSGSGSGTDFTLTISRLEPEDFAVYYCHQYHRSTPTFGGGTKVEIK
ka (cyno GHR): 182000 M⁻¹ s⁻¹

Source: patent US9249224B2 (RINAT NEUROSCIENCE CORP., priority 2011, dated 2016)
